For the experiment, the target named is T1, KDM5A1-797 ΔPHD1 (Homo sapiens, UniProt P29375, DEL288-347/INS286GSGSGSG).
T1 construct: The KDM5A1-797 ΔPHD1 construct was generated after removing the residues Ser287-Lys347; His (N, cleaved yes); made in house; host or cells: Sf21 insect cells (baculovirus)
T1 sequence (P29375 with tags, fused parts or gaps INS286GSGSGSG/DEL288-347): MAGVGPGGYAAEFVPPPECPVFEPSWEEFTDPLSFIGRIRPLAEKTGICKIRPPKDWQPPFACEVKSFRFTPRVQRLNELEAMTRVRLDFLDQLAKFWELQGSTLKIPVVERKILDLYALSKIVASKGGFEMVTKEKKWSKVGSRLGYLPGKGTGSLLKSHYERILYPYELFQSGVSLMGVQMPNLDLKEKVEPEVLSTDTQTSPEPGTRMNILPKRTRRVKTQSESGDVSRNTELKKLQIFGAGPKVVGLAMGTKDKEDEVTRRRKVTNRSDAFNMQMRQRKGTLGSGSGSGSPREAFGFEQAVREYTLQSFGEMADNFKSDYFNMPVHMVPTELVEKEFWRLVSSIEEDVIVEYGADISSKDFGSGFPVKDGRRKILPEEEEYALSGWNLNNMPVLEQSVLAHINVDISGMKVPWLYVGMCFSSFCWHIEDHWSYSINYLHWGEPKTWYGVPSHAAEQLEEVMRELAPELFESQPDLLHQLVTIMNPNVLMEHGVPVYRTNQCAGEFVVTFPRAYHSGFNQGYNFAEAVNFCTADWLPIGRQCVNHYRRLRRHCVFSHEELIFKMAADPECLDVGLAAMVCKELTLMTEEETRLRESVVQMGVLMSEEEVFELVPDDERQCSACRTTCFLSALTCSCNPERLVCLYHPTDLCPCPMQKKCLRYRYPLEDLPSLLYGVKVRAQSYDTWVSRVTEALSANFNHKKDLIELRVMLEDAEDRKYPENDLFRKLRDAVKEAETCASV
As to the kind of experiment: KDM5A ΔPHD1 demethylation, formaldehyde release assay. The class given is biochemical. The protocol:
The KDM5A1-797 ΔPHD1 construct was generated after removing the residues Ser287-Lys347 and replacing them with a (GS)4 linker before cloning into a pFASTBAC HTA vector. The protocol for expression and purification of the KDM5A1-797 ΔPHD1 construct was the same as WT.
Michaelis–Menten parameters were determined using Graphpad Prism.

Setting [1] is: KDM5A1-797 ΔPHD1, n ≥ 3, s.e.m.

As for “Ac-H3K4me3 21mer: N-terminally acetylated 21mer H3K4me3 peptide, catalytic domain substrate”, the kcat/Km – broadly, the turnover number divided by the Michaelis constant – (KDM5A1-797 ΔPHD1) was 57.7 ± 13.7 M⁻¹ s⁻¹. In addition, under setting [1], the Km (usually the concentration of substrate that gives half-maximal velocity) worked out at 819 ± 133 µM and the kcat (commonly the maximal rate divided by the concentration of active sites) amounted to 0.0472 ± 0.0035 s⁻¹. Further, the “increase in Km on PHD1 deletion” value (ΔPHD1 vs WT KDM5A1-797) is “eightfold”.
